Values joined by “and” are separate entries in the source; they are usually repeats but may differ in a detail not shown here. Equal values may be shown once.
B1: Thermotoga maritima dihydrodipicolinate reductase (Tm-DHDPR) (enzyme, T. maritima)
chain: MKYGIVGYSGRMGQEIQKVFSEKGHELVLKVDVNGVEELDSPDVVIDFSSPEALPKTVDLCKKYRAGLVLGTTALKEEHLQMLRELSKEVPVVQAYNFSIGINVLKRFLSELVKVLEDWDVEIVETHHRFKKDAPSGTAILLESALGKSVPIHSLRVGGVPGDHVVVFGNIGETIEIKHRAISRTVFAIGALKAAEFLVGKDPGMYSFEEVIFGGE
notes: Dihydrodipicolinate reductase (DapB), Thermotoga maritima; construct not described; theoretical mass of the tetramer printed as 99,380 Da
B2: Arabidopsis thaliana dihydrodipicolinate reductase 2 (At-DHDPR2) (enzyme, UniProt Q8LB01 54-349, looked up)
chain: LSMGKSETFEEAGNSVAPGNGISIMVNGCSGKMGKAVIKAADSAGVNIVPTSFGSVEEAGQTVEVCGKEILVHGPTEREKVLSSVFEKYPELIVVDYTIPSAVNDNAELYGKVGVPFVMGTTGGDRTRLYKTVEESKIYAVISPQMGKQVVAFLAAMEIMSEQFPGAFAGYSLEVMESHQASKLDASGTAKAVISCFQKLGVSYDMDQIQLIRDPKQQIEVVGVPEEHVSGHAFHLYHLTSPDKTVSFEFQHNVCGRSIYAEGTVDAVLFLAKKIRSKAEKRIYNMIDVLREGNMR
notes: Dihydrodipicolinate reductase 2 (At-DHDPR2), Arabidopsis thaliana, plasmid encoding AT3G59890 from TAIR; primers excluded the chloroplast transit peptide as identified by chloroP; residues may remain after TEV cleavage; also called AT3G59890; source: E. coli BL21(DE3) Star, purified (His-Trap, TEV cleavage, second His-trap)
B3: Escherichia coli dihydrodipicolinate reductase (Ec-DHDPR) (enzyme, E. coli)
chain: MHDANIRVAIAGAGGRMGRQLIQAALALEGVQLGAALEREGSSLLGSDAGELAGAGKTGVTVQSSLDAVKDDFDVFIDFTRPEGTLNHLAFCRQHGKGMVIGTTGFDEAGKQAIRDAAADIAIVFAANFSVGVNVMLKLLEKAAKVMGDYTDIEIIEAHHRHKVDAPSGTALAMGEAIAHALDKDLKDCAVYSREGHTGERVPGTIGFATVRAGDIVGEHTAMFADIGERLEITHKASSRMTFANGAVRSALWLSGKESGLFDMRDVLDLNNL
notes: Dihydrodipicolinate reductase (DapB), Escherichia coli; construct not described; theoretical mass of the tetramer printed as 114,800 Da

How the values were obtained:
[1] = biological target: the molecule itself; test: small angle X-ray scattering (SAXS); in-line gel filtration (Superdex 200 5/150), 20 mM Tris.HCl, 150 mM NaCl, pH 8.0, 27°C; initial concentration 2-5 mg/mL; volume and molecular weight by AUTOPOROD, comparison with crystal structures by CRYSOL
[2] = biological target: the molecule itself; test: SEC-MALS; Malvern P3000 column with Viscotek TDA (refractive index, low angle and right angle light scattering); 100 µL of 1.0 mg/mL; 20 mM Tris-HCl, 150 mM NaCl, pH 8.0; 28°C

Protein | stoichiometry N [1] | stoichiometry N [2]
B1 | 4 | –
B2 | – | 2 and 4
B3 | 4 | –
